Source: PMC11564870

Columns and labels:
mOct4 POU;mSox2 HMG = mOct4 POU;mSox2 HMG (mouse;mouse, UniProt P20263;P48432 131-282;41-119, |); assay: EMSA
Monbr Sox-like HMG = target: T1, Monbr Sox-like HMG (Monosiga brevicollis, UniProt A9VCR9 107-175); assay: EMSA
T1 sequence: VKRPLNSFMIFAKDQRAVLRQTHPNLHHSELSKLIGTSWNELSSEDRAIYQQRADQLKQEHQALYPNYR

Chain of mOct4 POU;mSox2 HMG (P20263 131-282, chain 1 of 2): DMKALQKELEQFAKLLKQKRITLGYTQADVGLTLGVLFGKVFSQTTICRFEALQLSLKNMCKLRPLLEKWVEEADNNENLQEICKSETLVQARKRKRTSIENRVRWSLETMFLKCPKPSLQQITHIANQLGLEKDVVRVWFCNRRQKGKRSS
Chain of mOct4 POU;mSox2 HMG (P48432 41-119, chain 2 of 2): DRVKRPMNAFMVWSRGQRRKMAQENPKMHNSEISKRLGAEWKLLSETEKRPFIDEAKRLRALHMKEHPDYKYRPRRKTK

B1: SoxOct canonical (dsDNA)
DNA 1: GCGGCATTGTCATGCAAATCGGCGG
DNA 2: CCGCCGATTTGCATGACAATGCCGC
binding result (mOct4 POU;mSox2 HMG): binds

B2: Sox consensus (dsDNA)
DNA 1: GGCGGCGGCATTGTCCGGCGCGCGG
DNA 2: CCGCGCGCCGGACAATGCCGCCGCC
binding result (Monbr Sox-like HMG): no binding
